± gives the standard error. Fewer inactive variants are shown than the library holds.
B1: glmS ribozyme (parent)
chain: AUAAAAGCGCCAGAACUACAGAAAUGUAGUUGACGAGGAGGAGGUUUAUCGAAUUUUCGGCGGAUGCCUCCAAA

Experiments:
Details in all cases: with glucosamine-6-phosphate
glucosamine-6-phosphate [1] = variants of: B1; assay: self-cleavage kobs at 40 uM GlcN6P; higher = faster cleavage; RNA array
Procedure, shortened: (§1)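 E. coli RNA polymerase transcribed barcoded ribozyme variants in situ on sequenced MiSeq chips, which were tracked via a hybridised Cy3 probe at 37 °C. Tiles were imaged over ~14 h after glucosamine-6-phosphate (40 μM to 10 mM) in HEPES/KCl/Mg(OAc)2 buffer was flowed in. Normalised per-tile medians were fit to one- or two-exponential decays for kobs, and kcat and KM came from weighted Michaelis–Menten fits.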

glucosamine-6-phosphate [2] = variants of: B1; assay: self-cleavage kobs at 10000 uM GlcN6P; higher = faster cleavage; RNA array
Procedure, shortened: as §1

glucosamine-6-phosphate [3] = variants of: B1; assay: self-cleavage kobs at 160 uM GlcN6P; higher = faster cleavage; RNA array
Procedure, shortened: as §1

glucosamine-6-phosphate [4] = variants of: B1; assay: self-cleavage kobs at 640 uM GlcN6P; higher = faster cleavage; RNA array
Procedure, shortened: as §1

glucosamine-6-phosphate [5] = variants of: B1; assay: self-cleavage kobs at 2500 uM GlcN6P; higher = faster cleavage; RNA array
Procedure, shortened: as §1

Row | Variant | self-cleavage kobs at 40 uM GlcN6P (glucosamine-6-phosphate [1]) [s⁻¹] | self-cleavage kobs at 10000 uM GlcN6P (glucosamine-6-phosphate [2]) [s⁻¹] | self-cleavage kobs at 160 uM GlcN6P (glucosamine-6-phosphate [3]) [s⁻¹] | self-cleavage kobs at 640 uM GlcN6P (glucosamine-6-phosphate [4]) [s⁻¹] | self-cleavage kobs at 2500 uM GlcN6P (glucosamine-6-phosphate [5]) [s⁻¹]
1 | C34A G37C A48C | < 1e-05 | < 1e-05 | – | – | –
2 | G7A A12U A52U | < 1e-05 | – | – | – | –
3 | A12U U65A C67A | 6.19e-05 ± 1.3e-05 | 0.000114 ± 2e-05 | – | – | –
4 | G7U G35C U55G A64C | < 1e-05 | – | – | – | –
5 | G43U G59C | < 1e-05 | < 1e-05 | < 1e-05 | < 1e-05 | < 1e-05
6 | A14C C71U | 0.000147 ± 1.3e-05 | 0.00794 ± 0.00094 | 0.000353 ± 3.7e-05 | 0.000938 ± 9.2e-05 | 0.00483 ± 0.00086
7 | G7A A12U A33C C58A A64G | < 1e-05 | < 1e-05 | – | – | –
8 | C8G A39G G59C | < 1e-05 | < 1e-05 | – | – | –
9 | G29A G59U G63A A64U | < 1e-05 | < 1e-05 | – | – | –
10 | U30G G62C | < 1e-05 | < 1e-05 | < 1e-05 | < 1e-05 | –
11 | G9C U56G | < 1e-05 | < 1e-05 | < 1e-05 | < 1e-05 | < 1e-05
12 | A15G C50G C70U | 5.62e-05 ± 1.6e-05 | 4.88e-05 ± 1.3e-05 | – | 0.000167 ± 3.8e-05 | 0.00023 ± 5.9e-05
13 | G32U G41A G66C C68G | < 1e-05 | < 1e-05 | < 1e-05 | – | < 1e-05
14 | G37U C71U | < 1e-05 | – | – | < 1e-05 | –
15 | C8A A36G | < 1e-05 | < 1e-05 | < 1e-05 | < 1e-05 | < 1e-05
16 | A14U G43A C61G U65A | < 1e-05 | < 1e-05 | – | – | –
17 | A53G G60U | < 1e-05 | – | < 1e-05 | < 1e-05 | –
18 | U30C C50G U69A | 0.000101 ± 1.6e-05 | 0.000171 ± 2.6e-05 | – | – | –
19 | G38C A39C G40C C50A A53G U65C | < 1e-05 | – | – | – | –
20 | A36C A52U | < 1e-05 | < 1e-05 | – | – | –
21 | A36C G59U C68G | < 1e-05 | – | – | – | –
22 | A14C U55A U56G | 0.002 ± 0.00048 | – | – | 0.0195 ± 0.0041 | 0.0295 ± 0.013
23 | A42U G43U G60U | < 1e-05 | – | – | – | –
24 | A12G A36C | < 1e-05 | – | < 1e-05 | < 1e-05 | < 1e-05

Row | Variant | self-cleavage kobs at 40 uM GlcN6P (glucosamine-6-phosphate [1]) [s⁻¹] | self-cleavage kobs at 10000 uM GlcN6P (glucosamine-6-phosphate [2]) [s⁻¹] | self-cleavage kobs at 160 uM GlcN6P (glucosamine-6-phosphate [3]) [s⁻¹] | self-cleavage kobs at 640 uM GlcN6P (glucosamine-6-phosphate [4]) [s⁻¹] | self-cleavage kobs at 2500 uM GlcN6P (glucosamine-6-phosphate [5]) [s⁻¹]
25 | A12U A14G A52G | 0.000148 ± 3e-05 | 0.00726 ± 0.0014 | – | – | 0.00387 ± 0.0018
26 | A15C G37C G40A G43U | < 1e-05 | < 1e-05 | – | – | –
27 | U55G U57G | < 1e-05 | 5.12e-05 ± 1.3e-05 | – | 5.98e-05 ± 2.6e-05 | –
28 | A12U A14G | 0.00336 ± 0.00044 | – | 0.00737 ± 0.0027 | 0.0265 ± 0.0078 | –
29 | C11U U46A | < 1e-05 | 9.01e-05 ± 1.7e-05 | < 1e-05 | – | 4.03e-05 ± 1.7e-05
30 | A6C G7U A12U A15U | < 1e-05 | < 1e-05 | – | – | –
31 | A15C U47G G51A U56C | < 1e-05 | < 1e-05 | – | – | < 1e-05
32 | A14C A53U U69C | 5.39e-05 ± 1.6e-05 | – | – | – | –
33 | A48G G59U | < 1e-05 | – | – | – | –
34 | G41A U69A | < 1e-05 | – | – | < 1e-05 | –
35 | U30C A36C U69G | 0.000181 ± 7.1e-05 | – | – | 0.000264 ± 0.00013 | –
36 | A12U U54A | 0.00273 ± 0.00049 | 0.121 ± 0.059 | 0.00304 ± 0.00084 | 0.0221 ± 0.0044 | 0.0233 ± 0.0078
37 | U54A C61U G62A | < 1e-05 | < 1e-05 | – | < 1e-05 | –
38 | A15U C34A A64U C68A | < 1e-05 | < 1e-05 | – | – | –
39 | G35C U69A C70G | < 1e-05 | – | – | – | –
40 | G13C A36C C71G | < 1e-05 | – | – | < 1e-05 | –
41 | C8U A48C | < 1e-05 | < 1e-05 | – | < 1e-05 | –
42 | G32C U49A | < 1e-05 | < 1e-05 | < 1e-05 | < 1e-05 | –
43 | A12G G32C G37U C71G | < 1e-05 | – | – | – | –
44 | C8A U69G | 8.97e-05 ± 2.7e-05 | 0.000773 ± 0.00027 | – | 0.000846 ± 0.00027 | 0.000592 ± 0.00028
45 | C50G G63A C70G | 0.000105 ± 2.6e-05 | 8.99e-05 ± 1.5e-05 | – | 0.000198 ± 4.3e-05 | 9.35e-05 ± 3e-05
46 | G29A G43A | < 1e-05 | – | < 1e-05 | < 1e-05 | < 1e-05
47 | C10U G43U | < 1e-05 | < 1e-05 | < 1e-05 | < 1e-05 | < 1e-05

Reference: the supplement of paper PMC7125110
